Assays:
4E10-specific peptide = assay: ELISA on peptide MPER (671-683), antibody titrated
[1] = biological target: HIV-1 Env of isolate COT6, mutant D674S (HIV-1); assay: cell-based or functional assay
[2] = biological target: HIV-1 Env of pseudovirus NIH-069_C1080.c03 (HIV-1); assay: cell-based or functional assay
[3] = biological target: HIV-1 Env of isolate NIH-090_A07412M1.vrc12 (HIV-1); assay: cell-based or functional assay
[4] = biological target: HIV-1 Env of isolate COT6 (wild-type) (HIV-1); assay: cell-based or functional assay
[5] = biological target: HIV-1 Env of pseudovirus NAC_REJO.67 (HIV-1); assay: cell-based or functional assay
[6] = biological target: HIV-2 C3 chimera Env (HIV-2 (HIV-1 MPER) chimera); assay: cell-based or functional assay
[7] = biological target: HIV-1 Env of pseudovirus NAC_HxB2 (HIV-1) (UniProt P04578); assay: cell-based or functional assay
[8] = biological target: HIV-1 Env of isolate COT6, mutant D674T (HIV-1); assay: cell-based or functional assay
[9] = biological target: HIV-1 Env of pseudovirus NIH-048_CNE19 (HIV-1); assay: cell-based or functional assay
[10] = biological target: HIV-1 Env of NAC_REJO.67 (HIV-1); assay: cell-based or functional assay
[11] = biological target: HIV-1 Env of NIH-012_1012.11.TC21.3257 (HIV-1); assay: cell-based or functional assay
[12] = biological target: HIV-1 Env of isolate COT6, mutant D674E (HIV-1); assay: cell-based or functional assay
[13] = biological target: HIV-1 Env of pseudovirus NIH-044_ZM247F.F7 (HIV-1); assay: cell-based or functional assay
[14] = biological target: HIV-1 Env of pseudovirus NIH-040_Ce703010054 2A2 (HIV-1); assay: cell-based or functional assay
[15] = biological target: HIV-1 Env of NIH-034_Ce0393 C3 (HIV-1); assay: cell-based or functional assay
[16] = biological target: HIV-1 Env of NIH-047_Ce704809221 1B3 (HIV-1); assay: cell-based or functional assay
[17] = biological target: HIV-1 Env of NIH-032_HIV-16845.2.22 (HIV-1); assay: cell-based or functional assay
[18] = biological target: HIV-1 Env of NIH-001_6535.3 (HIV-1); assay: cell-based or functional assay
[19] = biological target: HIV-1 Env of NIH-060_Q769ENVd22 (HIV-1); assay: cell-based or functional assay
[20] = biological target: HIV-1 Env of isolate NIH-083_P0402 c2 11 (HIV-1); assay: cell-based or functional assay
[21] = biological target: HIV-1 Env of pseudovirus NIH-023_ZM249M.PL1 (HIV-1); assay: cell-based or functional assay
[22] = biological target: HIV-2 C4 chimera Env (HIV-2 (HIV-1 MPER) chimera); assay: cell-based or functional assay
[23] = biological target: HIV-1 Env of NIH-044_ZM247F.F7 (HIV-1); assay: cell-based or functional assay
[24] = biological target: HIV-1 Env of NIH-036_Ce2010 F5 (HIV-1); assay: cell-based or functional assay
[25] = biological target: HIV-1 Env of pseudovirus NIH-056_Q168ENVa2 (HIV-1); assay: cell-based or functional assay
[26] = biological target: HIV-1 Du156.12 Env (HIV-1 Du156.12); assay: cell-based or functional assay
[27] = biological target: HIV-1 Env of pseudovirus NIH-010_1054.07.TC4.1499 (HIV-1); assay: cell-based or functional assay
[28] = biological target: HIV-1 Env of isolate NIH-088_X1632 S2 B10 (HIV-1); assay: cell-based or functional assay
[29] = biological target: HIV-1 Env of NIH-066_191084 B7.19 (HIV-1); assay: cell-based or functional assay
[30] = biological target: HIV-1 Env of NAC_KNH1144 (HIV-1); assay: cell-based or functional assay
[31] = biological target: HIV-1 Env of NIH-074_C4118.c09 (HIV-1); assay: cell-based or functional assay
[32] = biological target: HIV-1 Env of NAC_BG505 (HIV-1); assay: cell-based or functional assay
[33] = biological target: HIV-2 C1 chimera Env (HIV-2 (HIV-1 MPER) chimera); assay: cell-based or functional assay
[34] = biological target: HIV-1 Env of pseudovirus NAC_IAVIC22 (HIV-1); assay: cell-based or functional assay
[35] = biological target: HIV-1 Env of pseudovirus NIH-097_6811.v7.c18 (HIV-1); assay: cell-based or functional assay
[36] = biological target: HIV-1 Env of pseudovirus NIH-064_0260.v5.c1 (HIV-1); assay: cell-based or functional assay
[37] = biological target: HIV-1 Env of NIH-002_QHO692 .42 (HIV-1); assay: cell-based or functional assay
[38] = biological target: HIV-1 Env of pseudovirus NAC_RHPA4.7 (HIV-1); assay: cell-based or functional assay
[39] = biological target: HIV-1 Env of pseudovirus NIH-090_A07412M1.vrc12 (clade D) (HIV-1); assay: cell-based or functional assay
[40] = biological target: HIV-1 Env of NIH-022_ZM233M.PB6 (HIV-1); assay: cell-based or functional assay
[41] = biological target: HIV-2 Env (parental virus of the chimeras) (HIV-2); assay: cell-based or functional assay
[42] = biological target: HIV-1 Env of NIH-081_BJOX028000.10.3 (HIV-1); assay: cell-based or functional assay
full-length MPER peptide = assay: ELISA on peptide MPER (654-683), antibody titrated
[43] = biological target: HIV-1 Env of isolate Du156.12 (HIV-1); assay: cell-based or functional assay

Substance: 4E10 (antibody)
- EC50 (read off the curve) (4E10-specific peptide): 0.02 µg/mL
- Fold increase in IC50 relative to wild-type COT6 [1]: 1.65 fold
- neutralization IC50 [2]: 0.328 µg/mL
- IC80 (µg/ml), TZM-bl pseudovirus neutralization [3]: 10.4 µg/mL
- Fold increase in IC50 (wild-type COT6, the reference) [4]: 1 fold
- neutralization IC50 [5]: 1.87 µg/mL
- IC50 (µg/ml), neutralization of chimeric virus [6]: > 10 µg/mL
- neutralization IC50 [7]: 0.021 µg/mL
- Fold increase in IC50 relative to wild-type COT6 [8]: 25 fold
- neutralization IC50 [9]: 0.31 µg/mL
- IC80 neutralization [10]: 8.62 µg/mL
- IC80 neutralization [11]: 8.25 µg/mL
- Fold increase in IC50 relative to wild-type COT6 [12]: 10 fold
- neutralization IC50 [13]: 1.85 µg/mL
- neutralization IC50 [14]: 2.05 µg/mL
- IC80 neutralization [15]: 2.56 µg/mL
- IC80 neutralization [16]: 0.557 µg/mL
- IC80 neutralization [17]: 0.653 µg/mL
- IC80 neutralization [18]: 3.29 µg/mL
- IC80 neutralization [19]: 6.57 µg/mL
- IC80 (µg/ml), TZM-bl pseudovirus neutralization [20]: 0.363 µg/mL
- neutralization IC50 [21]: 1.44 µg/mL
- IC50 (µg/ml), neutralization of chimeric virus [22]: 1.41 µg/mL
- IC80 neutralization [23]: 7.5 µg/mL
- IC80 neutralization [24]: > 50 µg/mL
- neutralization IC50 [25]: 3.78 µg/mL
- IC50 (µg/ml), neutralization of HIV-1 Du156.12 [26]: 0.101 µg/mL
- neutralization IC50 [27]: 1.35 µg/mL
- IC80 (µg/ml), TZM-bl pseudovirus neutralization [28]: 10.4 µg/mL
- IC80 neutralization [29]: 9.04 µg/mL
- IC80 neutralization [30]: 47.9 µg/mL
- IC80 neutralization [31]: 1.17 µg/mL
- IC80 neutralization [32]: 4.88 µg/mL
- IC50 (µg/ml), neutralization of chimeric virus [33]: 0.8 µg/mL
- neutralization IC50 [34]: 1.21 µg/mL
- neutralization IC50 [35]: 2.74 µg/mL
- neutralization IC50 [36]: 0.227 µg/mL
- IC80 neutralization [37]: 25 µg/mL
- neutralization IC50 [38]: 4.66 µg/mL
- IC50 (µg/ml), TZM-bl cell neutralization assay, pseudovirus [39]: 2.58 µg/mL
- IC80 neutralization [40]: 4.99 µg/mL
- IC50 (µg/ml), neutralization of HIV-2 [41]: > 10 µg/mL
- IC80 neutralization [42]: 1.88 µg/mL
- EC50 (read off the curve) (full-length MPER peptide): 0.03 µg/mL

Substance: PGZL1 (antibody)
- EC50 (read off the curve) (4E10-specific peptide): 0.02 µg/mL
- neutralization IC50 [2]: 1.73 µg/mL
- IC80 (µg/ml), TZM-bl pseudovirus neutralization [3]: > 50 µg/mL
- neutralization IC50 [5]: 10.7 µg/mL
- neutralization IC50 [7]: 0.121 µg/mL
- neutralization IC50 [9]: 3.12 µg/mL
- IC80 neutralization [10]: 40.2 µg/mL
- IC80 neutralization [11]: > 50 µg/mL
- neutralization IC50 [14]: 48.9 µg/mL
- IC80 neutralization [15]: > 50 µg/mL
- IC80 neutralization [16]: 3.1 µg/mL
- IC80 neutralization [17]: 2.47 µg/mL
- IC80 neutralization [18]: 4.69 µg/mL
- IC80 neutralization [19]: > 50 µg/mL
- IC80 (µg/ml), TZM-bl pseudovirus neutralization [20]: 32.3 µg/mL
- neutralization IC50 [21]: 12.7 µg/mL
- IC80 neutralization [23]: 48.2 µg/mL
- IC80 neutralization [24]: > 50 µg/mL
- neutralization IC50 [25]: 21.7 µg/mL
- neutralization IC50 [27]: 5.15 µg/mL
- IC80 (µg/ml), TZM-bl pseudovirus neutralization [28]: > 50 µg/mL
- IC80 neutralization [29]: > 50 µg/mL
- IC80 neutralization [30]: > 50 µg/mL
- IC80 neutralization [31]: 33.3 µg/mL
- IC80 neutralization [32]: > 50 µg/mL
- neutralization IC50 [34]: 15.2 µg/mL
- neutralization IC50 [35]: > 50 µg/mL
- neutralization IC50 [36]: > 50 µg/mL
- IC80 neutralization [37]: > 50 µg/mL
- neutralization IC50 [38]: > 50 µg/mL
- IC50 (µg/ml), TZM-bl cell neutralization assay, pseudovirus [39]: 13.9 µg/mL
- IC80 neutralization [40]: 23.6 µg/mL
- IC80 neutralization [42]: 20.9 µg/mL
- EC50 (read off the curve) (full-length MPER peptide): 0.02 µg/mL

Substance: VRC01 (antibody)
- neutralization IC50 [2]: 1.4 µg/mL
- IC80 (µg/ml), TZM-bl pseudovirus neutralization [3]: 0.216 µg/mL
- Fold increase in IC50 (wild-type COT6, the reference) [4]: 1 fold
- neutralization IC50 [5]: 0.106 µg/mL
- neutralization IC50 [7]: 0.022 µg/mL
- Fold increase in IC50 relative to wild-type COT6 [8]: 1 fold
- neutralization IC50 [9]: 0.127 µg/mL
- IC80 neutralization [10]: 0.414 µg/mL
- IC80 neutralization [11]: 0.318 µg/mL
- Fold increase in IC50 relative to wild-type COT6 [12]: 1.2 fold
- neutralization IC50 [13]: 0.236 µg/mL
- neutralization IC50 [14]: 0.139 µg/mL
- IC80 neutralization [15]: 1.46 µg/mL
- IC80 neutralization [16]: 1.28 µg/mL
- IC80 neutralization [17]: 4.25 µg/mL
- IC80 neutralization [18]: 3.7 µg/mL
- IC80 neutralization [19]: 0.092 µg/mL
- IC80 (µg/ml), TZM-bl pseudovirus neutralization [20]: 0.164 µg/mL
- neutralization IC50 [21]: 0.05 µg/mL
- IC80 neutralization [23]: 0.945 µg/mL
- IC80 neutralization [24]: 0.625 µg/mL
- neutralization IC50 [25]: 0.056 µg/mL
- Fold change (IC50 wash)/(IC50 no wash) [43]: 1.5 fold
- IC50 (µg/ml), no wash [43]: 0.11 µg/mL
- IC50 (µg/ml), wash [43]: 0.16 µg/mL
- neutralization IC50 [27]: 0.909 µg/mL
- IC80 (µg/ml), TZM-bl pseudovirus neutralization [28]: 1.35 µg/mL
- IC80 neutralization [29]: 0.188 µg/mL
- IC80 neutralization [30]: 0.535 µg/mL
- IC80 neutralization [31]: 0.202 µg/mL
- IC80 neutralization [32]: 0.213 µg/mL
- neutralization IC50 [34]: 0.348 µg/mL
- neutralization IC50 [35]: 0.14 µg/mL
- neutralization IC50 [36]: 0.124 µg/mL
- IC80 neutralization [37]: 7.93 µg/mL
- neutralization IC50 [38]: 0.035 µg/mL
- IC50 (µg/ml), TZM-bl cell neutralization assay, pseudovirus [39]: 0.051 µg/mL
- IC80 neutralization [40]: 5.69 µg/mL
- IC80 neutralization [42]: 0.573 µg/mL
